In assay [1] the target is His-AP-Sp35 fusion protein (His-tagged alkaline phosphatase fused to the extracellular domain of Sp35, a.a. 34-532) (human) (UniProt P05187). Kind of assay: competition ELISA; AP-Sp35 pre-incubated with 100-fold excess of soluble sNgR344-Fc, immobilized sNgR344-Fc. (In an ELISA, binding on a coated surface is turned into a signal by an enzyme label.)
Assay [2] addresses T1, human NgR1 receptor expressed on COS7 cells (human, UniProt Q9BZR6 27-447).
T1 construct: whole, on cells; also called Nogo receptor-1; nogo receptor-1
T1 sequence (looked up): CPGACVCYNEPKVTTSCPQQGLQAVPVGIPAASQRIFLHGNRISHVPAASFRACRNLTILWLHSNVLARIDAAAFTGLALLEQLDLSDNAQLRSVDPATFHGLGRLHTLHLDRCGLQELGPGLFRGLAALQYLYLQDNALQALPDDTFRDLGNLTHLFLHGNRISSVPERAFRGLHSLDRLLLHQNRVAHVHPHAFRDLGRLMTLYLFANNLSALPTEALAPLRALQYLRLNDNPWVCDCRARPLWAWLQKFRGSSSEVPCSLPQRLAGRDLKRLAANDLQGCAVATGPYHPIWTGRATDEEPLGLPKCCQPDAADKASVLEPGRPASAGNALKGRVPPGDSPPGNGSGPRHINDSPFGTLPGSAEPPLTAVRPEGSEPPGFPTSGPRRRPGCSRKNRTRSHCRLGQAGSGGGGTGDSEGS
Briefly: mutant AP-Sp35 construct tested for NgR1 binding.

The target in assay [3] is T1, human NgR1 receptor expressed on COS7 …. Kind of assay: AP-Sp35 titration on NgR1-transfected COS7 cells, AP activity with 4-nitrophenyl phosphate.

The results in this text go back to patent US7785829 (Biogen, dated 2010).

B1: sNgR344-Fc (rat NgR1 peptide 35-344 fused to the rat IgG1) (Fc fusion, UniProt Q99M75 35-344, looked up, not shown: a dimerising Fc or GST)
chain: NEPKVTTSCPQQGLQAVPTGIPASSQRIFLHGNRISYVPAASFQSCRNLTILWLHSNALAGIDAAAFTGLTLLEQLDLSDNAQLRVVDPTTFRGLGHLHTLHLDRCGLQELGPGLFRGLAALQYLYLQDNNLQALPDNTFRDLGNLTHLFLHGNRIPSVPEHAFRGLHSLDRLLLHQNHVARVHPHAFRDLGRLMTLYLFANNLSMLPAEVLVPLRSLQYLRLNDNPWVCDCRARPLWAWLQKFRGSSSEVPCNLPQRLAGRDLKRLAASDLEGCAVASGPFRPFQTNQLTDEELLGLPKCCQPDAADKA
B1 came in with a percent competition of binding in assay [1] of 80%.

B2: His-AP-Sp35 (34-532) with amino acid 456 mutated from arginine to glutamic acid and amino acid 458 from histidine to valine (other)
chain: TGCPPRCECSAQDRAVLCHRKRFVAVPEGIPTETRLLDLGKNRIKTLNQDEFASFPHLEELELNENIVSAVEPGAFNNLFNLRTLGLRSNRLKLIPLGVFTGLSNLTKLDISENKIVILLDYMFQDLYNLKSLEVGDNDLVYISHRAFSGLNSLEQLTLEKCNLTSIPTEALSHLHGLIVLRLRHLNINAIRDYSFKRLYRLKVLEISHWPYLDTMTPNCLYGLNLTSLSITHCNLTAVPYLAVRHLVYLRFLNLSYNPISTIEGSMLHELLRLQEIQLVGGQLAVVEPYAFRGLNYLRVLNVSGNQLTTLEESVFHSVGNLETLILDSNPLACDCRLLWVFRRRWRLNFNRQQPTCATPEFVQGKEFKDFPDVLLPNYFTCRRARIRDRKAQQVFVDEGHTVQFVCRADGDPPPAILWLSPEKVLVSAKSNGRLTVFPDGTLEVRYAQVQDNGTYLCIAANAGGNDSMPAHLHVRSYSPDWPHQPNKTFAFISNQPGE
notes: also called Sp35 construct in which residues R at 456 and H at 458 were changed into E and V; not shown: N-terminal His tag and alkaline phosphatase (AP) reporter of the His-AP vector, with any junction residues
Consider B2, for which, in assay [2], the “fold drop in signal (against the unmutated construct)” value is above 10 fold.

B3: His-AP-Sp35 fusion protein (His-tagged alkaline phosphatase fused to the extracellular domain of Sp35, a.a. 34-532) (other, human)
chain: IIPVEEENPDFWNREAAEALGAAKKLQPAQTAAKNLIIFLGDGMGVSTVTAARILKGQKKDKLGPEIPLAMDRFPYVALSKTYNVDKHVPDSGATATAYLCGVKGNFQTIGLSAAARFNQCNTTRGNEVISVMNRAKKAGKSVGVVTTTRVQHASPAGTYAHTVNRNWYSDADVPASARQEGCQDIATQLISNMDIDVILGGGRKYMFRMGTPDPEYPDDYSQGGTRLDGKNLVQEWLAKRQGARYVWNRTELMQASLDPSVTHLMGLFEPGDMKYEIHRDSTLDPSLMEMTEAALRLLSRNPRGFFLFVEGGRIDHGHHESRAYRALTETIMFDDAIERAGQLTSEEDTLSLVTADHSHVFSFGGYPLRGSSIFGLAPGKARDRKAYTVLLYGNGPGYVLKDGARPDVTESESGSPEYRQQSAVPLDEETHAGEDVAVFARGPQAHLVHGVQEQTFIAHVMAFAACLEPYTACDLAPPAGTTDAAHPGTGCPPRCECSAQDRAVLCHRKRFVAVPEGIPTETRLLDLGKNRIKTLNQDEFASFPHLEELELNENIVSAVEPGAFNNLFNLRTLGLRSNRLKLIPLGVFTGLSNLTKLDISENKIVILLDYMFQDLYNLKSLEVGDNDLVYISHRAFSGLNSLEQLTLEKCNLTSIPTEALSHLHGLIVLRLRHLNINAIRDYSFKRLYRLKVLEISHWPYLDTMTPNCLYGLNLTSLSITHCNLTAVPYLAVRHLVYLRFLNLSYNPISTIEGSMLHELLRLQEIQLVGGQLAVVEPYAFRGLNYLRVLNVSGNQLTTLEESVFHSVGNLETLILDSNPLACDCRLLWVFRRRWRLNFNRQQPTCATPEFVQGKEFKDFPDVLLPNYFTCRRARIRDRKAQQVFVDEGHTVQFVCRADGDPPPAILWLSPRKHLVSAKSNGRLTVFPDGTLEVRYAQVQDNGTYLCIAANAGGNDSMPAHLHVRSYSPDWPHQPNKTFAFISNQPGE
notes: Order His-AP-Sp35 as in the name; also called alkaline phosphatase-Sp35 conjugate; His-AP-Sp35 (34-532); not shown: His tag
Turning to B3, the EC50 in assay [3] is around 6 nM.

A word on the EC50: it is the concentration that produces a half-maximal response.
